Like-named read-outs stand apart in the source and are kept apart here.
Legend:
[1] = target: type I collagen extracted from male Wistar Hannover rat tail tendons (dialyzed) (rat (Wistar Hannover, extracted from tail tendons)) (UniProt P02454); assay: ITC; NaOH (4.6 uM in ultrapure water) titrated in 24 aliquots into 950 uL type I collagen (0.2 mg/mL in 0.33% v/v acetic acid), 30.0 ± 0.1 °C, stirred at 300 rpm; self-assembly (fibrillogenesis) triggered by the rise in pH; areas corrected by the acid-base control titration; enthalpy of self-assembly at the isoelectric point; at least triplicate
[2] = target: type I collagen extracted from male Wistar Hannover rat tail tendons (dialyzed) (rat (Wistar Hannover, extracted from tail tendons)) (UniProt P02454); assay: as above; remark: listed apart in the source

Chain of type I collagen extracted from male Wistar Hannover rat tail tendons (dialyzed), P02454 152-1207; P02466 86-1125 (complex; other documents disagree on this pair) (P02454 152-1207): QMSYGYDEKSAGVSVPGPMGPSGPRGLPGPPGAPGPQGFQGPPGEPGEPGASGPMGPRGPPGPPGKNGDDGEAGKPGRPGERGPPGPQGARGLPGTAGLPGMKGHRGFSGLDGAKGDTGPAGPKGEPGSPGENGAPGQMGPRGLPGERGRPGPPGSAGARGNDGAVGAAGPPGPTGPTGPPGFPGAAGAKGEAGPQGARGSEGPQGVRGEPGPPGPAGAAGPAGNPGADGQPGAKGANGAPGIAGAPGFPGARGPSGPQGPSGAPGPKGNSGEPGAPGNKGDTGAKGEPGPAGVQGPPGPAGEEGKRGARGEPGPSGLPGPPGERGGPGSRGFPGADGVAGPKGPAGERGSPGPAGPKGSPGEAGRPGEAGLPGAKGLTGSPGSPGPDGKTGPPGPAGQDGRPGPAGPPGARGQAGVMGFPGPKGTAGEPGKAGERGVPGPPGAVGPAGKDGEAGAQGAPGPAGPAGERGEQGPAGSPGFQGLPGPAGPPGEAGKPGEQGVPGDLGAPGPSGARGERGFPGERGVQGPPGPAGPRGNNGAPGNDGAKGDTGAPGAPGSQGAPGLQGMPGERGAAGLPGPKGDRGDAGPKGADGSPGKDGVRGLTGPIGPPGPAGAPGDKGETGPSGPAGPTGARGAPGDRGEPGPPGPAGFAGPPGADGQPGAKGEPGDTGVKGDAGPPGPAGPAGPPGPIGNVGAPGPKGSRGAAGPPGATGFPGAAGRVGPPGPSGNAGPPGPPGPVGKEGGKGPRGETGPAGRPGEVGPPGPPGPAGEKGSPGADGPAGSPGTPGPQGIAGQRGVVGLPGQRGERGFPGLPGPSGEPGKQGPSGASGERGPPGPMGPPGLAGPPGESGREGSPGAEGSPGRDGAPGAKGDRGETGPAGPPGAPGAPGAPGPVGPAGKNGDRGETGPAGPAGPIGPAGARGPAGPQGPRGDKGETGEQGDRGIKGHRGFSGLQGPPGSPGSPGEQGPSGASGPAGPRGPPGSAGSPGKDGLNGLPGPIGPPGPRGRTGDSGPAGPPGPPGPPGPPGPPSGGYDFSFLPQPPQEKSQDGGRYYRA
Chain of type I collagen extracted from male Wistar Hannover rat tail tendons (dialyzed), P02454 152-1207; P02466 86-1125 (complex; other documents disagree on this pair) (P02466 86-1125): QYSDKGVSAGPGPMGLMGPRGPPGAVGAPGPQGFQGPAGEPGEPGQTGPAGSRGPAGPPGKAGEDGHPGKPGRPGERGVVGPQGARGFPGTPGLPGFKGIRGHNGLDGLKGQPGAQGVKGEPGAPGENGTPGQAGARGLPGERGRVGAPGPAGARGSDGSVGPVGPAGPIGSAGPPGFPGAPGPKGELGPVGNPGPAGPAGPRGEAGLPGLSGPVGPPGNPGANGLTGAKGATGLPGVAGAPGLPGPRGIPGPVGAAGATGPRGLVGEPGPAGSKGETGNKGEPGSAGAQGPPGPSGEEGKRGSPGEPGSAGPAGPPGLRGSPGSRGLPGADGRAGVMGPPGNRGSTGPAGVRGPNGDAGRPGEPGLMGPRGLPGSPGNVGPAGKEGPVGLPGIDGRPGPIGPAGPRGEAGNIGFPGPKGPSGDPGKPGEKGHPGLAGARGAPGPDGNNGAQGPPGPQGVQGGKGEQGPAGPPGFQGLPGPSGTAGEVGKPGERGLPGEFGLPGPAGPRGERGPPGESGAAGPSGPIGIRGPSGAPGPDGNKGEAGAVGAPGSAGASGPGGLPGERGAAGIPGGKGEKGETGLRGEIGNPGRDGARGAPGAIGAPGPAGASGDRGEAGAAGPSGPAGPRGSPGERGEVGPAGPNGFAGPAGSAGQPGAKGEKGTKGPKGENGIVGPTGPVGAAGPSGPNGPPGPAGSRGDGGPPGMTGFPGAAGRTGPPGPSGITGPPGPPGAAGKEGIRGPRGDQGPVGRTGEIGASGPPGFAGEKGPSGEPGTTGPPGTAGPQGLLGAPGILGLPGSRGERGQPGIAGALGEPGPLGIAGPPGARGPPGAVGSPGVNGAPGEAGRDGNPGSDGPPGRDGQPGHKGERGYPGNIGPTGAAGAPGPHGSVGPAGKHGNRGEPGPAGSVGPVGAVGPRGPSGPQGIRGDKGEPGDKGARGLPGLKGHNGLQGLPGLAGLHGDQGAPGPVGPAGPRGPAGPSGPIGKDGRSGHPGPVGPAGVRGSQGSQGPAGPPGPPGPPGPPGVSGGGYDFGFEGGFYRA

dH [1]: 3.28 J/mol
dH [2]: 3.27 J/mol
Substance: type I collagen extracted from male Wistar Hannover rat tail tendons (dialyzed), P02454 152-1207; P02466 86-1125 (complex; other documents disagree on this pair)

Source: paper PMC7681980
